Target: T1, human TF (Innovin, DADE/Behring), P13726
T1 chain: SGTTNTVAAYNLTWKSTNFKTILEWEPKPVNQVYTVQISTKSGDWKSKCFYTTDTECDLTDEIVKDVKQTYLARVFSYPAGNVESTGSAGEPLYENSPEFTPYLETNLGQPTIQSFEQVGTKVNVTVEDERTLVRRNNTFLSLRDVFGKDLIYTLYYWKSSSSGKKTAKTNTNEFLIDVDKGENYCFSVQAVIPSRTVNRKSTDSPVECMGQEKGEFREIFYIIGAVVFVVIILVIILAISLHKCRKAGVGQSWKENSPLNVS

B1: PCgla-egf1FVIIa (protein)
chain 1: ANSFLEELRHSSLERECIEEICDFEEAKEIFQNVDDTLAFWSKHVDGDQCLVLPLEHPCASLCCGHGTCIDGIGSFSCDCRSGWEGRFCQRKDDQLICVNENGGCEQYCSDHTGTKRSCRCHEGYSLLADGVSCTPTVEYPCGKIPILEKRNASKPQGR
chain 2: IVGGKVCPKGECPWQVLLLVNGAQLCGGTLINTIWVVSAAHCFDKIKNWRNLIAVLGEHDLSEHDGDEQSRRVAQVIIPSTYVPGTTNHDIALLRLHQPVVLTDHVVPLCLPERTFSERTLAFVRFSLVSGWGQLLDRGATALELMVLNVPRLMTQDCLQQSRKVGDSPNITEYMFCAGYSDGSKDSCKGDSGGPHATHYRGTWYLTGIVSWGQGCATVGHFGVYTRVSQYIEWLQKLMRSEPRPGVLLRAPFP
  FX activation in the presence of 1 nM TF (FXa generation rates, mOD/min): The lack of FX activation, even at 100-fold higher concentration than that of rFVIIa
  TF-dependent activity (FX activation, cleavage of chromogenic FXa substrate at 405 nm): the activity of PCgla-egf1FVIIa was identical to the vehicle control

B2: FIXgla-egf1FVIIa (protein)
chain: YNSGKLEEFVQGNLERECMEEKCSFEEAREVFENTERTTEFWKQYVDGDQCESNPCLNGGSCKDDINSYECWCPFGFEGKNCETHKDDQLICVNENGGCEQYCSDHTGTKRSCRCHEGYSLLADGVSCTPTVEYPCGKIPILEKRNASKPQGRIVGGKVCPKGECPWQVLLLVNGAQLCGGTLINTIWVVSAAHCFDKIKNWRNLIAVLGEHDLSEHDGDEQSRRVAQVIIPSTYVPGTTNHDIALLRLHQPVVLTDHVVPLCLPERTFSERTLAFVRFSLVSGWGQLLDRGATALELMVLNVPRLMTQDCLQQSRKVGDSPNITEYMFCAGYSDGSKDSCKGDSGGPHATHYRGTWYLTGIVSWGQGCATVGHFGVYTRVSQYIEWLQKLMRSEPRPGVLLRAPFP
  FX activation in the presence of 1 nM TF (FXa generation rates, mOD/min): The lack of FX activation, even at 100-fold higher concentration than that of rFVIIa

Reference: patent publication US20210301277
